Eight molecules from paper PMC3880865 (Nature structural & molecular biology, 2012) can be followed below.

Numbering of substitutions follows the chain as printed. In names and notes the source's numbering stands.

The labels stand for the following.
B1: GST-CBL47–435 M222F (domain or fragment)
chain: PPGTVDKKMVEKCWKLMDKVVRLCQNPKLALKNSPPYILDLLPDTYQHLRTILSRYEGKMETLGENEYFRVFMENLMKKTKQTISLFKEGKERMYEENSQPRRNLTKLSLIFSHMLAELKGIFPSGLFQGDTFRITKADAAEFWRKAFGEKTIVPWKSFRQALHEVHPISSGLEAFALKSTIDLTCNDYISVFEFDIFTRLFQPWSSLLRNWNSLAVTHPGYMAFLTYDEVKARLQKFIHKPGSYIFRLSCTRLGQWAIGYVTADGNILQTIPHNKPLFQALIDGFREGFYLFPDGRNQNPDLTGLCEPTPQDHIKVTQEQYELYCEMGSTFQLCKICAENDKDVKIEPCGHLMCTSCLTSWQESEGQGCPFCRCEIKGTEPIVVDPFD
B2: GST-CBL354–435 Y368F (domain or fragment)
chain: EPTPQDHIKVTQEQFELYCEMGSTFQLCKICAENDKDVKIEPCGHLMCTSCLTSWQESEGQGCPFCRCEIKGTEPIVVDPFD
B3: GST-CBL47–435 Y368F pY371 K389A (domain or fragment)
chain: B1 chain with F176M, Y322F, K343A
modifications: phosphotyrosine at 371
B4: GST-CBL354–435 Y368F pY371 (domain or fragment)
chain: B2 chain
modifications: phosphotyrosine at 371
B5: GST-CBL354–435 pY371 (domain or fragment)
chain: B2 chain with F15Y
modifications: phosphotyrosine at 371
B6: GST-CBL354–435 WT (domain or fragment)
chain: B2 chain with F15Y
B7: GST-CBL354–435 Y371F (domain or fragment)
chain: B2 chain with F15Y, Y18F
B8: GST-CBL47–435 Y368F pY371 V431A (domain or fragment)
chain: B1 chain with F176M, Y322F, V385A
modifications: phosphotyrosine at 371

This experiment addresses UbcH5B (UniProt P62837 1-147). In words: SPR. On the technique in general: In SPR one partner is held on a chip, and binding of the other changes the refractive index at the surface.
Consider B1, for which binding was characterised by a dissociation constant (Kd) of 320 µM.

Take B2: the Kd (usually the free concentration of one partner at which half of the binding sites on the other are occupied at equilibrium, for simple one-to-one binding) is 38 µM.

Take B3: binding was put at a Kd of 81 µM.

Consider B4, for which the Kd came out at 18 µM.

Regarding B5, binding was put at a Kd of 20 µM.

Turning to B6, binding was put at a Kd of 42 µM.

Take B7: the dissociation constant Kd came out at 50 µM.

B8 showed a Kd of 43 µM. The Kd values of the last two molecules are within 1.5-fold of each other.
